# Experimental data published in the RNAGym collection of RNA variant scans (doi:10.7554/elife.80360).
# B1: HDV Ribozyme (parent)
# chain: GGCCGGCAUGGUCCCAGCCUCCUCGCUGGCGCCGGCUGGGCAACAUUCCGAGGGGACCGUCCCCUCGGUAAUGGCGAAUGGGACCCA
# Variants of: B1
# Experiment: self-cleavage, relative activity (ratio to wild type); higher = more cleavage; co-transcriptional
row,Variant,self-cleavage
1,GGCCGGCAUCGUCCCAGCCUCCUCGCUGGCGCCGGCUGAGCAACAUUCCGAGGGGACCGUCCCCUCGGUAAUGGCGAAUGGGACCCA [G10C G39A],0.259
2,GGCCCGCAUGGUCCCCGCCUCCUCGCUGGCGCCGGCUGGGCAACAUUCCGAGGGGACCGUCCCCUCGGUAAUGGCGAAUGGGACCCA [G5C A16C],0.0875
3,GGCCGGCAUGGUCCCAGCCUCCUGGCUGGCGCCGGCUGGGCUACAUUCCGAGGGGACCGUCCCCUCGGUAAUGGCGAAUGGGACCCA [C24G A42U],0
4,GGCCGGCAUGGUCCCAGCCUCCUCGCUGGCGCCGGCUGGGCAACAUUCCGAGGGGAGCGUCCCCUCGAUAAUGGCGAAUGGGACCCA [C57G G68A],1.18
5,GGCCGGCAUGGUCCCAGCCUCCUCGCUGGCGCCGGCUGGCUAACAUUCCGAGGGGACCGUCCCCUCGGUAAUGGCGAAUGGGACCCA [G40C C41U],0.629
6,GGCCGGCAUGGUCCCAGCCUCCUCGCUGGCGCCGGCUAGGCAACAUUCCGAGGGGACCCUCCCCUCGGUAAUGGCGAAUGGGACCCA [G38A G59C],0.0256
7,GGCCGGCAUGGUCCCAGCCUCCUCGCUGGGGCCGGCUGGGCAACAUUACGAGGGGACCGUCCCCUCGGUAAUGGCGAAUGGGACCCA [C30G C48A],0.0369
8,GGCCGGCAUGGUCCCAGCCUCCUCGCUGGCCCCGGCUGGGCAACAUUCCGAGGGGACCGUCCCCUCGGUACUGGCGAAUGGGACCCA [G31C A71C],0.0475
9,GGCCGGCAUGGUCCCAACCUCCUCGCUGGCGCCGGCUGGGCAACAUUCCAAGGGGACCGUCCCCUCGGUAAUGGCGAAUGGGACCCA [G17A G50A],0.76
10,GGCCGGCAUGGUCCCAGCCUCCUCGCUGGCGCCGGCGGGGCAACAUUCCGGGGGGACCGUCCCCUCGGUAAUGGCGAAUGGGACCCA [U37G A51G],0.0639
11,GGCCGGCAUGGUCCCAGCCUCCUCGCUGGCGCCGGCUGGGCAACAUUCCGAGGGGACCGUCCCCUCGGUACUGGCGAAUUGGACCCA [A71C G80U],0.182
12,GGCCGGCAUGGUCCCAGCCUCCUCGCUCGCACCGGCUGGGCAACAUUCCGAGGGGACCGUCCCCUCGGUAAUGGCGAAUGGGACCCA [G28C G31A],0.0739
13,GGCCGGCAUGGUCCCAGCCUCCUCGCUGGCGCCGGCUGGGCAACAUCCCGAGGGGACCGUCCCCUCGGUAAUGGCGAAUGGGACUCA [U47C C85U],0.831
14,GGCCGGCAUGGUCCCAGCCUCCUCGCUGGCGCCGGCUGGGCAACACUCCGAGGAGACCGUCCCCUCGGUAAUGGCGAAUGGGACCCA [U46C G54A],0.519
15,GGCCGGCAUGGUCUCAGCCUCCUCGCUGGCGCCGACUGGGCAACAUUCCGAGGGGACCGUCCCCUCGGUAAUGGCGAAUGGGACCCA [C14U G35A],0.631
16,GGCCGGCAUGGUCCCAGCCUCCUCGCUGGCGCCGGCAGGGCAACAUUCCGAGGGGACCGUCCCCUCGGUAAUGGCGAAUGGGACCUA [U37A C86U],0.35
17,GGCCGGCAUGGUCCCAGCCUCCUCGCUGGCGCCGGCUGGGCAACAUUCCGAGGGAACCGUCCCCUCGCUAAUGGCGAAUGGGACCCA [G55A G68C],0.777
18,GGCCGGCAUGGUCCCAGCCUCCUCGCUGGCCCCGGCUGGGCAACAUUCCGAGGGGACCGUCCCCUCGGUAAUGGCGUAUGGGACCCA [G31C A77U],0.0489
19,GGCCGGCAUGGUCCCAGGCUCCUCGCUGGCGCCGGCUGGGCAACAUUCCGAGAGGACCGUCCCCUCGGUAAUGGCGAAUGGGACCCA [C18G G53A],0.175
20,GGCCGGCAUGGUCCCAGCCUCCUCGCUGGCGCCGGCCGGGCAACAUUCCGAGGGGACCGUCCCCUCGGUAAUGGCGAAUGGGACCAA [U37C C86A],0.974
21,GGCCGGCAUGGUCCCAGCCUCCUCGCUGGCGCCGGCUGGGCAACAUUUCGAGGGGACCGUCCCCUCGCUAAUGGCGAAUGGGACCCA [C48U G68C],0.959
22,GGCCGGCAUUGUCCCAGCCUCCUCGCUUGCGCCGGCUGGGCAACAUUCCGAGGGGACCGUCCCCUCGGUAAUGGCGAAUGGGACCCA [G10U G28U],0.109

row,Variant,self-cleavage
1,GGCCGGCAUCGUCCCAGCCUCCUCGCUGGCGCCGGCUGGGCAACAUUCCGAGGGGACCGUCCCCUCGGUAAUGGCGAAUCGGACCCA [G10C G80C],0.104
2,GGCCGGCAUGGUCCCAGCCUCCUCGCUGGCGCCGGCUGGGCAACAUUCCGAUGGGACCGUCCCCUCGGUAAUGGCGAAUCGGACCCA [G52U G80C],0.241
3,GGCCGGCAUGGUCCCAGCCUCCUCGCUGGCGCCGGCUGGGCAACAUUCCGAGGGGACCGUCCCCUCGGUAAUGACGAAUGAGACCCA [G74A G81A],0.213
4,GGCCGGCCUGGUCCCAGCCUCCUCGCUGGCGCCGGCUGGGCAACAUUCCGAGGGGACCGUCCCCUCGGUUAUGGCGAAUGGGACCCA [A8C A70U],0.623
5,GGCCGGCAUGGUCCCAGCCUCCUCGCUGGCGCCGGCUGGGCAACCUUCCGAGGGGACCGUCCCCUCGGUGAUGGCGAAUGGGACCCA [A45C A70G],0.655
6,GGCCGGCAUGGUCCCAGUCUCCUCGCUGGCGCCUGCUGGGCAACAUUCCGAGGGGACCGUCCCCUCGGUAAUGGCGAAUGGGACCCA [C18U G34U],0.0455
7,GGCCGGCAUGAUCCCAGCCUCCUCGCUGGCGCCGGCUGGGCAACAUUCCGAGGGGACCGUCCCCUCGGAAAUGGCGAAUGGGACCCA [G11A U69A],0.166
8,GGCCGGCGUGGUCCCAGCCUCCUCGCUGGCGCCGGCUGGGCAACAUUCCCAGGGGACCGUCCCCUCGGUAAUGGCGAAUGGGACCCA [A8G G50C],1.17
9,GGCCGGCAUGGUCCCAGCCUCCUCGCUGGCGCCGCCUGGGCAACAUUCCGAGGGGACCGUCCCCUCGGCAAUGGCGAAUGGGACCCA [G35C U69C],0.291
10,GGCCGGCAUGGUCCCAGCCUCCUCGGUGGCGCCGGCUGGGCAACAUUCCGAGGGGACCGUCCCCUCGGUAAUGGCGAAUGGGACGCA [C26G C85G],0.965
11,GGCCGGCAUGGUACCAGCCUCCUCGCUGGCGCCGGCUGGGCAACAUUCCGAGGGGACCGUCCCCCCGGUAAUGGCGAAUGGGACCCA [C13A U65C],0.203
12,GGCCGGCAUGGUCCCAGCCUCCUCGCUGGUGCCAGCUGGGCAACAUUCCGAGGGGACCGUCCCCUCGGUAAUGGCGAAUGGGACCCA [C30U G34A],0.0875
13,GGCAGGCAUGGUCCCAGCCUCAUCGCUGGCGCCGGCUGGGCAACAUUCCGAGGGGACCGUCCCCUCGGUAAUGGCGAAUGGGACCCA [C4A C22A],0.0332
14,GGCCGGCAUGGUCCCAGCCUCCUCGCUGGCGCCGGCUGGGCAACCUCCCGAGGGGACCGUCCCCUCGGUAAUGGCGAAUGGGACCCA [A45C U47C],0.598
15,GCCCGGCAUGGUCCCAGCCUCCUCGCUGGCGCCGGCUGGUCAACAUUCCGAGGGGACCGUCCCCUCGGUAAUGGCGAAUGGGACCCA [G2C G40U],0.0409
16,GGCCGGCAUGGUCCCAGCCGCCUCGCUGGCGCCGGCUGGGCAACAUUCCGAGGGGACCGUCCCCUAGGUAAUGGCGAAUGGGACCCA [U20G C66A],0.249
17,GGCCGGCAUGGUCCCAGCCUCCACUCUGGCGCCGGCUGGGCAACAUUCCGAGGGGACCGUCCCCUCGGUAAUGGCGAAUGGGACCCA [U23A G25U],0.104
18,GGCCGGCAUGGUCCCAGCCGCCUCGCUGGCGCCGGCUGGGCAACAUUCCGAGGGGACCGUCUCCUCGGUAAUGGCGAAUGGGACCCA [U20G C62U],0.19
19,GGCCGGCAUGGUCCCAGCCUCCUCGCUGGCGCCGGCUGGGCGACAUUCCGAGGGGACCGUCCCCUCGGUAAUGGCGAAUUGGACCCA [A42G G80U],0.095
20,GGCCGGCAUGGUCCCAGCCUCCUCGCUGGCGCCGGCUGGGCAACAUUCCGAGGGGACCGUCCCCUCGGAAAUGGCGAAUGGCACCCA [U69A G82C],0.554
21,GGCCGGCAUGGUCCCAGCCUCCUCGCUGCCGCCGGCUGGGCAACAUUCCGAGGGGACCGUCCCCUCGGUAAUGGCGAAUAGGACCCA [G29C G80A],0.0692
22,GCCCGGCAUGGUCCCAGCCUCCUCGCUGGCGCCGGCUGGGCAACAAUCCGAGGGGACCGUCCCCUCGGUAAUGGCGAAUGGGACCCA [G2C U46A],0.0911

row,Variant,self-cleavage
1,GGCCGGCAUGGUCCCAGCCUCCUCGCUGGCCCCGGCUGGGCAACAUUCCGAGGGGACCGUCCCCUCGGUAAUGGCGAAUGGGCCCCA [G31C A83C],0.185
2,GGCCGGCAUGGUCCCAGCCUCCUCGCUGGCGCCGGCUGGGCAACAUUUCGAGGGGACCGUCCCCUCGGUAGUGGCGAAUGGGACCCA [C48U A71G],1.03
3,GGCCGGCAUGGUCCCAGCCUCCUCGCUGGCGCCGGCUGGGCAACAUUCCGAGGGGACAGUCCCCUCGAUAAUGGCGAAUGGGACCCA [C58A G68A],0.95
4,GGCCGGCAUGGUCCCAGCCUCCUCGCUGGCGCCGGCUGGGCAGCAUUCCGAGGGGACCGUCCCCUCGGUAAUGGCGAAUGGGACCCG [A43G A87G],0.634
5,GGCCGGCAUGGUCCCAGCCUCCUCGCAGGCGCCGGCUGGCCAACAUUCCGAGGGGACCGUCCCCUCGGUAAUGGCGAAUGGGACCCA [U27A G40C],0.151
6,GGCCGGCAUGGUCCCAGCCUCCUCGCUGGCGCCGGCUGGGCAACAUUACGAGGGGACUGUCCCCUCGGUAAUGGCGAAUGGGACCCA [C48A C58U],1.11
7,GGCCGGCAUGGUCCCAGCCUCAUCGCUGGCGCCGGCUAGGCAACAUUCCGAGGGGACCGUCCCCUCGGUAAUGGCGAAUGGGACCCA [C22A G38A],0.0608
8,GGCCGGCAUGGUCCCAGCCUCCUCGCUGGCGCCGGCUGGGCAGCAUUCCGAGGGGACCGUCCCCUCGGUAAUGGCGAAAGGGACCCA [A43G U79A],0.192
9,GGCCGGCAUGGUCCCAGCCUCUUCGCUGGCGCCGGCUGGGCAACAUUCCGAGGGGACCGUCCCCUCGAUAAUGGCGAAUGGGACCCA [C22U G68A],0.631
10,GGCCGGCAUGGUCCCAGCCUCCUCGCUGGCGCCGGCUGGGCAACAUUCCGAGGGGACCGUCCCCUCGGUAAUGGCGAAUGGUAGCCA [G82U C84G],0.249
11,GGCCGGCAUGGUCCCAGCCUCCUCGCUGGCGCCGGCUAGGCAAUAUUCCGAGGGGACCGUCCCCUCGGUAAUGGCGAAUGGGACCCA [G38A C44U],0.136
12,GGCCGGCAUGGUCCCACCCUCCUCGCUGGCGCCGGCUGGGAAACAUUCCGAGGGGACCGUCCCCUCGGUAAUGGCGAAUGGGACCCA [G17C C41A],0.111
13,GGCCGGCAUGGUCCCAGCCUCCUCGCUGUCGCCGGCUGGGCAACAUUCCGAGGGGACCGUCCCCUCGGUAAUGGCGAAUUGGACCCA [G29U G80U],0.0885
14,GCCCGGCAUGGUCCCAGCCUCCUCGCAGGCGCCGGCUGGGCAACAUUCCGAGGGGACCGUCCCCUCGGUAAUGGCGAAUGGGACCCA [G2C U27A],0
15,GGCCGGCAUGGUCCCAGCCUUUUCGCUGGCGCCGGCUGGGCAACAUUCCGAGGGGACCGUCCCCUCGGUAAUGGCGAAUGGGACCCA [C21U C22U],0.0702
16,GGCCGGCAUGGUCCCAGCCUCCUCGCUGGCGCCGGCUGGGCAACAUUCCGAGGGGCCCGUCCCCUCGGUAAUAGCGAAUGGGACCCA [A56C G73A],0.658
17,GGUCGGCAUGGUCCCAGCCUCCUCGCUGGCGCCAGCUGGGCAACAUUCCGAGGGGACCGUCCCCUCGGUAAUGGCGAAUGGGACCCA [C3U G34A],0.106
18,GGCCGGCAUGGUCCCAGCCUCCUCGCUGGCGCCGGCUGGGCAACAUUCCGAGGGGACCGUCCCCUCGGUAAUGGCGAAUCGGAGCCA [G80C C84G],0.163
19,GGCCGGCAUGGUCCCAGCCUCUUCGCUGGCGCCGGCUGGGCAACAUUCCGAGGGGAACGUCCCCUCGGUAAUGGCGAAUGGGACCCA [C22U C57A],0.846
20,GGCCGGCAUGGUCCGAGCCUCCUCGCUGGCGCCGGCUGGGCAACAUUCCUAGGGGACCGUCCCCUCGGUAAUGGCGAAUGGGACCCA [C15G G50U],0.598
